Data: PMC11358013, “FANCD2–FANCI surveys DNA and recognizes double- to single-stranded junctions”

Legend:
FANCD2 WT;FANCI WT [1] = biological target: T1, FANCD2 WT;FANCI WT (Gallus gallus;Gallus gallus, UniProt Q68Y81;B0I564 1-1439;1-1338, |); assay: EMSA; unlabelled D2-I; EMSA: 50 mM HEPES pH 8.0, 75 mM NaCl, 1 mM TCEP, 20 nM DNA, 20-22 C; switchSENSE: 20 mM HEPES pH 8.0, 75 mM NaCl, 1 mM TCEP, 25 C; cryo-EM and single-molecule:; conditions: protein: recombinant;recombinant; copies: 1;1; label: 3' FAM on P1; blunt
[2] = biological target: FANCD2-ybbR-Cy3;FANCI-ybbR-Cy5 (Gallus gallus;Gallus gallus, UniProt Q68Y81;B0I564 1-1439;1-1338, |); assay: EMSA; double-labelled D2-I, affinity comparable to unlabelled; EMSA: 50 mM HEPES pH 8.0, 75 mM NaCl, 1 mM TCEP, 20 nM DNA, 20-22 C; switchSENSE: 20 mM HEPES pH 8.0, 75 mM NaCl, 1 mM TCEP, 25 C; cryo-EM and single-molecule:; conditions: protein: recombinant;recombinant; copies: 1;1; label: 3' FAM on P1; blunt
FANCD2 WT;FANCI WT [3] = biological target: T1, FANCD2 WT;FANCI WT; assay: cryo-EM; stalled state; 24 bp duplex modelled; EMSA: 50 mM HEPES pH 8.0, 75 mM NaCl, 1 mM TCEP, 20 nM DNA, 20-22 C; switchSENSE: 20 mM HEPES pH 8.0, 75 mM NaCl, 1 mM TCEP, 25 C; cryo-EM and single-molecule:; conditions: protein: recombinant;recombinant; copies: 1;1; 29 bp duplex; strand 1 has 5' ssDNA 30 nt and 3' ssDNA 40 nt

T1 sequence (Q68Y81 whole entry, chain 1 of 2): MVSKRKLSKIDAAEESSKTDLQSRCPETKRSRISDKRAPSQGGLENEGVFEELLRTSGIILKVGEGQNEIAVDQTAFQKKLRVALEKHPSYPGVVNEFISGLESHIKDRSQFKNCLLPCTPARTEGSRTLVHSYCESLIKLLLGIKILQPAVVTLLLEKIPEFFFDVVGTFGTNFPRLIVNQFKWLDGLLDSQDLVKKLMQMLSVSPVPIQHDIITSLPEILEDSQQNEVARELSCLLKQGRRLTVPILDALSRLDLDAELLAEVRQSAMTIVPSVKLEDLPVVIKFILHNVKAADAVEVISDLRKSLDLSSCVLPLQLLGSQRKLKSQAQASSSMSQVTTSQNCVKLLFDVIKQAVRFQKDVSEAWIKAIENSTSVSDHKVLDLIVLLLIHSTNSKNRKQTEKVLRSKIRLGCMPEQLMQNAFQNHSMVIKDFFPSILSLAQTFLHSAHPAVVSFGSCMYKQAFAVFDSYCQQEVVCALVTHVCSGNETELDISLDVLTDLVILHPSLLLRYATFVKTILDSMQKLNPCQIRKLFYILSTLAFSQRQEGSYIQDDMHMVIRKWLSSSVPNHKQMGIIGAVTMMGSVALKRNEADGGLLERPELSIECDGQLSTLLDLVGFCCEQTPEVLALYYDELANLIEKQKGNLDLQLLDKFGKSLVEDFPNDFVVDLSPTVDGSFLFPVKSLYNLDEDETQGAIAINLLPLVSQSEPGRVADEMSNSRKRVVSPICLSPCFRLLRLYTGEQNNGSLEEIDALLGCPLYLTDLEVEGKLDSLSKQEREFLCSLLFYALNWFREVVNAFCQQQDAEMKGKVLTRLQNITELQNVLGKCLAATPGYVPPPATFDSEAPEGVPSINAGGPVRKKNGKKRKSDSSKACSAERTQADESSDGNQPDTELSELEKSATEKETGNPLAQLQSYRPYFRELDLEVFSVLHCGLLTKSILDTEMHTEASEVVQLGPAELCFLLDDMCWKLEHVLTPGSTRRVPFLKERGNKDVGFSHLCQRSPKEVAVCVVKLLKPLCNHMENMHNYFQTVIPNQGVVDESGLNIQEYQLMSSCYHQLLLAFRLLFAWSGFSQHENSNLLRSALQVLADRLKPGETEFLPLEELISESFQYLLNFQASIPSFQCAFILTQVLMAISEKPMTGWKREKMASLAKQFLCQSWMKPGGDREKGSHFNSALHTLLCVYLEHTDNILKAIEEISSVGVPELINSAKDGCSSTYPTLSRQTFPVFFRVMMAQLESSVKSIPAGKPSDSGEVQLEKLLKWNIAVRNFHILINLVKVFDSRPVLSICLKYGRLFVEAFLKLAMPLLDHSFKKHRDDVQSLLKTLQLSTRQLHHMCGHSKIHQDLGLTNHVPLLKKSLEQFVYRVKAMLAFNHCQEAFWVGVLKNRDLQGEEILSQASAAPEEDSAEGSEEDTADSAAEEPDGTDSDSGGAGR
T1 sequence (B0I564 whole entry, chain 2 of 2): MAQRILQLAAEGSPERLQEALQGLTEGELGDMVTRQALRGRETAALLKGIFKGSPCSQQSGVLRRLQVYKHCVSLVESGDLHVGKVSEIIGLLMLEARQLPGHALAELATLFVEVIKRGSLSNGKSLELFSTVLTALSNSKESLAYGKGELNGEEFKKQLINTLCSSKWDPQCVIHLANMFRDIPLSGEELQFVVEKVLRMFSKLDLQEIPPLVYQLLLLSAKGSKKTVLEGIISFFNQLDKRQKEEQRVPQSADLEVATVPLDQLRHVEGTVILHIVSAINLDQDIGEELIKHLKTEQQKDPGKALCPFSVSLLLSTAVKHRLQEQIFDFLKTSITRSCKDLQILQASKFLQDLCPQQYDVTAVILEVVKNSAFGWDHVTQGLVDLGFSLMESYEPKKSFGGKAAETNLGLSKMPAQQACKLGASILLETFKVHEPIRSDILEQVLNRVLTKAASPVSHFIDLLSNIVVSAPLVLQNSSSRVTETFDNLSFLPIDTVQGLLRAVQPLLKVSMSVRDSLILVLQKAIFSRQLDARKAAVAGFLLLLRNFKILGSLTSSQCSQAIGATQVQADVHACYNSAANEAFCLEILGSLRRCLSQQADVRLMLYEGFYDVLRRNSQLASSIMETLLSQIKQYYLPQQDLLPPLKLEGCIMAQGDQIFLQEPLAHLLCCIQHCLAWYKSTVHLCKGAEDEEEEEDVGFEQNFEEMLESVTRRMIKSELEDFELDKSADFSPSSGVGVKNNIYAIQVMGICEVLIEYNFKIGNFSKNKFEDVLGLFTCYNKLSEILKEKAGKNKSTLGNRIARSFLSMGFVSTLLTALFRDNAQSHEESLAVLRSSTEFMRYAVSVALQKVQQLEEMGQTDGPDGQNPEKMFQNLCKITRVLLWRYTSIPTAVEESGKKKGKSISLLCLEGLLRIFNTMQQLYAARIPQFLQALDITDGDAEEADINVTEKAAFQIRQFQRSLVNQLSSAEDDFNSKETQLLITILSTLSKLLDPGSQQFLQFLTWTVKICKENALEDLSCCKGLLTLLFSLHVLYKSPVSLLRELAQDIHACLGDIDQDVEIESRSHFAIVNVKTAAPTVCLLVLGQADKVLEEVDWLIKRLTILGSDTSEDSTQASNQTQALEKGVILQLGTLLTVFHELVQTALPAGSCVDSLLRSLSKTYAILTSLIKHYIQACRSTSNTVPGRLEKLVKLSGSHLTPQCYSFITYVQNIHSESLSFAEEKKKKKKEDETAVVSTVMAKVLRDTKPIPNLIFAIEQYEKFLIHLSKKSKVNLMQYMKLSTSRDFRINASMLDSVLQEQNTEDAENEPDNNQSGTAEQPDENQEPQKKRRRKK
Chain of FANCD2-ybbR-Cy3;FANCI-ybbR-Cy5 (Q68Y81 whole entry, chain 1 of 2): as the sequence (Q68Y81 whole entry, chain 1 of 2) above
Chain of FANCD2-ybbR-Cy3;FANCI-ybbR-Cy5 (B0I564 whole entry, chain 2 of 2): as the sequence (B0I564 whole entry, chain 2 of 2) above

B1: 44 bp dsDNA P1/P7 (FAM) (dsDNA)
DNA 1: ATCGATGTCTCTAGACAGCTGCTCAGGATTGATCTGTAATGGCC
DNA 2: GGCCATTACAGATCAATCCTGAGCAGCTGTCTAGAGACATCGAT
B1: binds (FANCD2 WT;FANCI WT [1]); binds [2].

B2: ss-dsDNA J1/J2 (mixed)
DNA 1: TTTTTTTTTTTTTTTTTTTTTTTTTTTTTTATCGATGTCTCTAGACAGCTGCTCAGGATTGATCTGTAATTTTTTTTTTTTTTTTTTTTTTTTTTTTTT
DNA 2: ATCCTGAGCAGCTGTCTAGAGACATCGAT
B2: binds (FANCD2 WT;FANCI WT [3]).
